For experiment [1], the system named is HeLa cells. The experiment in a line: Cytotoxicity MTT assay, HeLa. In kind it is cell-based, human. As to conditions: 48 h. As for the experimental part:
(§1) Human cervical adenocarcinoma (HeLa) cells (cat# CRM-CCL-2) were obtained from the American Type Culture Collection (ATCC, Manassas, VA, USA). Human breast adenocarcinoma (MCF7) cells, Human prostate adenocarcinoma (PC3) cells, Human gastric adenocarcinoma (AGS) cells and Human Embryonic Kidney cells (HEK293T) were kindly provided by the Universidad Industrial de Santander. HeLa, MCF7, and HEK293T cells were cultured in DMEM medium supplemented with 10% FBS (fetal bovine serum), 1% penicillin/streptomycin. PC3 and AGS cells were cultured in RPMI medium supplemented with 10% FBS, 1% penicillin/streptomycin. All cells were maintained at 37 °C and 5% CO2.
(§2) 15,000 cells per well were plated in 96-well plates (Greiner, Fisher Scientific, Waltham, MA, USA) using a fully complemented medium, and incubated at 37 °C. Following a 24 h period, cells underwent serum starvation before being treated with KP10 and its analogs at concentrations of 10, 100, 250, and 500 nM for 48 h. Subsequently, each well received 100 µL of MTT solution (0.5 mg/mL), and the plates were incubated at 37 °C for 3 h. After adding the MTT solvent and further incubation for 15 min, the resultant absorbance was measured at 590 nm using a BioTech RT-2100C microplate reader. Data analysis was performed using Prism 8.0 software (GraphPad).
(In general: Tetrazolium assays rely on reduction of a dye to a coloured formazan, in cell work by metabolically active cells.)

The subject of experiment [2] is PC3 cells. The experiment in a line: Cytotoxicity MTT assay, PC3. To be noted: 48 h. In kind it is cell-based, human. As for the experimental part: as §1, §2
The target of experiment [3] is T1, kisspeptin receptor (Homo sapiens, UniProt Q969F8).
T1 sequence (Q969F8 whole entry): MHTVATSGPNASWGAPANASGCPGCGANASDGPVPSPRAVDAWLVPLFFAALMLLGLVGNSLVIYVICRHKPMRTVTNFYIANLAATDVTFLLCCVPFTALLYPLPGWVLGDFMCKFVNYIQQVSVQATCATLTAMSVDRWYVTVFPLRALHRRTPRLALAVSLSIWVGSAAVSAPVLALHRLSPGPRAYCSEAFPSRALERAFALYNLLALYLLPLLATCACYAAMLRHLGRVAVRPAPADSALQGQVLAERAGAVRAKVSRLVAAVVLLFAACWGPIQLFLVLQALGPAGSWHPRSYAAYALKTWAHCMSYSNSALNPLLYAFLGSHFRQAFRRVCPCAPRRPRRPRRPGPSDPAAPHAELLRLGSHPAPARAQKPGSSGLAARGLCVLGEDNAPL
Experiment [4] concerns the target T1, kisspeptin receptor. This is another data set of the same source.

“Ala^10-KP10: Tyr-Asn-Trp-Asn-Ser-Phe-Gly-Leu-Arg-Ala; KP10 Ala-scan analog (YNWNSFGLRA; printed: Tyr-Asn-Trp-Asn-Ser-Phe-Gly-Leu-Arg-Ala)”: in experiment [1], the “pIC50 HeLa” value is on record as 2.493. Moreover, the “pIC50 PC3” value in experiment [2] is 1.739.
In the case of “Ala^9-KP10: Tyr-Asn-Trp-Asn-Ser-Phe-Gly-Leu-Ala-Phe; KP10 Ala-scan analog (YNWNSFGLAF; printed: Tyr-Asn-Trp-Asn-Ser-Phe-Gly-Leu-Ala-Phe)”, the “pIC50 HeLa” value in experiment [1] is on record as 2.429. The “pIC50 PC3” value in experiment [2] was determined as 2.295.
As for YNWASFGLRF [Ala^4-KP10], the EC50 of Gαz pathway activation, effector-RlucII / rGFP-CAAX BRET biosensor in transfected HeLa cells, 10 min stimulation in experiment [3] was found to be 1100 nM. In experiment [4], this molecule returned an EC50 of β-arrestin1 recruitment, BRET biosensor in transfected HeLa cells of 13000 nM and an EC50 of β-arrestin2 recruitment, BRET biosensor in transfected HeLa cells of 2580 nM.
On the same counts, the results for YNANSFGLRF [Ala^3-KP10] are 646 nM, 1190 nM and 1430 nM.

The values are drawn from article PMC11352469, “Comprehensive Analysis of Kisspeptin Signaling: Effects on Cellular Dynamics in Cervical Cancer” (Biomolecules, 2024).
